# Patent US20140234868A1, “USE FOR GLYCOLIPOPROTEIN GINTONIN, ISOLATED AND IDENTIFIED FROM GINSENG, AS A NATURAL MEDICAL-PLANT DERIVED LIGAND” (KONKUK UNIVERSITY INDUSTRIAL COOPERATION CORP., priority 2011, published 2014)
# B1: gintonin: ginseng-derived glycolipoprotein; structural protein of ginseng major latex-like protein (MLP151) and ribonuclease-like storage proteins; crude gintonin used in tests (protein)
# chain 1: MGLTGKLICQTGIKSDGDVFHELFGTRPHHVPNITPANIQGCDLHEGEFGKVGSVVIWNYSIDGNAMIAKEEIVAIDEEDKSVTFKVVEGHLFEEFKSIVFSVHVDTKGEDNLVTWSIDYEKLNESVKDPTSYLDFLLSVTRDIEAHHLPK
# chain 2: RSDYPWAMFALRLQWPAGFCEVNNACDTKSLLNTFTIHGLYPYNAKGTPALYCDGTAFDVNSVSDFLAEMHLAWPSHETNTEDIQFWEHEWKKHGRCSEALLKQTDYFRTALAFRKAFDIVGLLNQEGIYPNNDLYRPKMIKEAIKKHLNAVPEIDFTKNENSEYVLTDINVCVNQQATRFVDCPTDDATDDYRLKFVRLPSKMKFADPRTNSII
# Assays:
# [1] = test system: HUVECs; assay: Scratch wound healing in HUVEC monolayers; type: cell-based, human; details: gintonin 30 μg/ml, 20 hrs
# Procedure: In this Example, an examination was made of the effect of gintonin on wound healing. For use in this examination, HUVECs were cultured in an M199 medium supplemented with heat-inactivated 20% FBS, […] basic fibroblast growth factor, 5 units/ml heparin, and streptomycin and penicillin in a 5% […] incubator.
# HUVECs (2.5×10^5/well) were seeded to 24-well plates, and incubated for 24 hrs, and then for an additional 6 hrs in M199 supplemented with 1% FBS. Single wounds were made in the confluent monolayers by dragging a sterile 200-μl pipette tip across the monolayer to create a cell-free path. Floating cells were washed off twice with M199 supplemented with 1% FBS. The adherent cells were incubated with gintonin (30 μg/ml). Before and after treatment with gintonin, HUVECs in each well were observed and photographed (100×) using an inverted fluorescence microscope (AxioVert200; Carl Zeiss, Germany). Morphological comparison with non-treated cells was made.
# In the assay for wound healing of gintonin, uncovered wound areas were measured using AxioVision 4 (Carl Zeiss, Germany) (FIG. 26A), and the time process of covering the scratch wound areas was monitored in the presence or absence of gintonin (FIG. 25B). In addition, uncovered scratch areas of gintonin-treated groups were compared with that of the control and expressed as % of that of the control (FIGS. 26C and D).
# [2] = target: LPA2 receptor (Homo sapiens, UniProt Q9HBW0); assay: Intracellular free Ca2+ (Fura-2AM) in LPA2-expressing B103 cells; type: cell-based; design: host or cells: B103 rat neuroblastoma cells
# Text: LPA family receptors are endogenous to cells of most organs. B103 rat neuroblastoma cells, known as LPA receptor-null cells (Valentine et al., Biochim Biophys Acta 1780. 597-605) were transiently transfected with a plasmid (vector) carrying one of genes coding for LPA1(edg-2), LPA2(edg-4), LPA3(edg-7), LPA4, LPA5 and LPA6 receptors or a plasmid carrying none of them (empty vector). Two or three days after transfection, the cells are suspended, and made permeable. Then, the permeable cells are treated with Fura-2AM, a fluorescent dye binding to calcium, and then with gintonin, followed by spectrofluorephotometry to examine whether gintonin induces an increase in intracellular free Ca^2+ level.
# (1) preparing large quantities of plasmids carrying respective LPA family receptor genes and an empty plasmid carrying none of them through amplification and purification (maxi-preparation); (2) verifying the expression of LPA receptors wherein B103 cells are transfected with haematoglutin (HA)-tagged LPA receptors, and then subjected to Western blotting analysis using an anti-HA primary antibody and a horseradish peroxidase (HRP)-conjugated secondary antibody to develop a color; (3) verifying the expression of LPA receptors wherein B1-3 cells are transfected with haematoglutin (HA)-tagged LPA receptors, and then subjected to confocal laser microscopy using an anti-HA antibody and a fluorescence dye Cy3-conjugated secondary antibody; (4) transfecting the empty plasmid and each of the plasmids carrying LPA family receptor genes into B103 cells; (5) treating the transfected B103 cells with trypsin (0.05% trypsin with EDTA, w/v) 2-3 days post-transfection, to give a cell suspension; (6) culturing the suspended B103 cells with Fura-2AM (2.5 μM); and (7) treating the suspended B103 cells with gintonin and quantifying a change in intracellular free Ca^2+ level in a cuvette by spectrofluorephotometry using Fura-2AM.
# Human LPA (lysophosphatidic acid) receptor subtypes, orphan GPCRs (G protein coupled receptors) and plasmids carrying GPCRs were purchased from Missouri S&T resource Center (www.cDNA.org).
# The transient transfection of LPA receptor subtypes was carried out with the aid of Lipofectamine 2000 of Invitrogen. A plasmid (10.8 μg) carrying each LPA receptor (LPA1, LPA2, LPA3, LPA4, LPA5, and LPA6) was transfected into B103 cells grown in 10-cm dishes, and incubated for 2 days prior for use in experiments.
# In this Example, gintonin, or ginsenoside Rb1 or Rg1 was examined for its ability to induce a transient increase of [Ca^2+]i in Fura-2AM-loaded B103 cells which were transfected with LPA receptors and in Fura-2AM-loaded B103 cells which were not transfected with LPA receptors. […]
# [3] = test system: HUVECs; assay: HUVEC migration, Boyden chamber; type: cell-based, human; details: 70~80 min, 37° C.
# Procedure: To measure the effect of gintonin on cell migration, a Boyden chamber (Neuro Probe Inc., Gaithersburg, Md., USA) assay was employed (Kim et al. Biol Pharm Bull 30: 1674-1679, 2007; Lee et al. Am J Physiol Cell Physiol 278:C612-C618, 2000).
# In the Boyden chamber (48 wells) of two compartments separated by a collagen-coated polycarbonate microporous membrane (8-μm pores), gintonin in M199 (0.1% BSA contained) was placed onto the wells of lower compartment while a HUVEC suspension was added to the wells of the upper compartment (5×10^4 cells/well). During incubation at 37° C. for 70˜80 min, the cells were allowed to migrate through the membrane into the lower compartment. Then, the chamber was disassembled, and the cells on the membrane was fixed and stained with Diff Quik (Sysmex, Kobe, Japan), and mounted on a slide.
# Sequence of LPA2 receptor (Q9HBW0 whole entry): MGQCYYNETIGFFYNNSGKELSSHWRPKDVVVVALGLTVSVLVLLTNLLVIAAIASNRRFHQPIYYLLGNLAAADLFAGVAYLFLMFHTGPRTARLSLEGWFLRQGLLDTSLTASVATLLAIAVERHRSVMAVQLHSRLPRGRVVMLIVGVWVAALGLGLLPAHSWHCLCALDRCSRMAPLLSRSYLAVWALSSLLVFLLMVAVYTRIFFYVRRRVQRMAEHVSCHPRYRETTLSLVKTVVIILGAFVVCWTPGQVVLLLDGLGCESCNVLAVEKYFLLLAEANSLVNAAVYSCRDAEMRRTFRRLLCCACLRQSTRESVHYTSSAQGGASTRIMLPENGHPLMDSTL
molecule,measurement,setting,value
B1,covering of scratch wound area,[1],covered the wound area
same,EC50,"[2]; LPA2 receptor, B103 cells, read-out: EC50, LPA receptor-mediated intracellular calcium increase",4 ± 0.4 pM
same,increase in intracellular calcium level,"[2]; gintonin 1 μg/ml, LPA2-expressing B103 cells",208.3 ± 13.0 µM
same,cell migration,[3],promoted cell migration in a concentration-dependent manner
